B1: hRANKL: human RANKL (hRANKL) (catalogue number: 310-01 from Peprotech, London, UK) (protein, UniProt O14788 69-317, looked up)
extracellular domain: YFRAQMDPNRISEDGTHCIYRILRLHENADFQDTTLESQDTKLIPDSCRRIKQAFQGAVQKELQHIVGSQHIRAEKAMVDGSWLDLAKRSKLEAQPFAHLTINATDIPSGSHKVSLSSWYHDRGWAKISNMTFSNGKLIVNQDGFYYLYANICFRHHETSGDLATEYLQLMVYVTKTSIKIPSSHTLMKGGSTKYWSGNSEFHFYSINVGGFFKLRSGEEISIEVSNPSLLDPDQDATYFGAFKVRDID
modifications: extracellular domain
B2: RANKL: RANK ligand (RANKL), as used in cited studies (protein, UniProt O14788 140-317, looked up)
Tumor necrosis factor ligand …: IRAEKAMVDGSWLDLAKRSKLEAQPFAHLTINATDIPSGSHKVSLSSWYHDRGWAKISNMTFSNGKLIVNQDGFYYLYANICFRHHETSGDLATEYLQLMVYVTKTSIKIPSSHTLMKGGSTKYWSGNSEFHFYSINVGGFFKLRSGEEISIEVSNPSLLDPDQDATYFGAFKVRDID

Key:
Raw 264.7 cells [1] = assay: TRAP staining / osteoclast morphology of Raw 264.7 cells on peptide-coated tissue culture plastic; type: cell-based
Description: Raw 264.7 cells were cultured and passaged as previously described. Cell adhesion to OP1_Hyp and OP1_Pro was assessed as shown by Barrow et al.. Briefly, 48-well plates were coated with 10 µg/mL of OSCAR-binding peptides overnight at 4 °C. The excess peptide was then removed by washing with PBS before adding 1% BSA to block non-specific binding sites for 1 h at 25 °C. Raw 264.7 cells were then resuspended at a concentration of 2 × 10^5 cells/mL and added to the well. Cells were cultured with different concentrations of human RANKL (hRANKL) (catalogue number: 310-01 from Peprotech, London, UK) (0–100 ng/mL) for up to 5 days to assess the contribution of the OSCAR-binding peptides OP1_Hyp and OP1_Pro to the differentiation of Raw 264.7 cells to mature OCs.
After 5 days of post-culture, Raw 264.7 cells were fixed in 4% PFA for 15 min at room temperature. TRAP was stained following the manufacturer’s protocol and evaluated by light microscopy (ThermoFisher, Swindon, UK). Multinucleated TRAP+ cells containing more than three nuclei were scored as mature OCs.

Raw 264.7 cells [2] = conditions: cited from earlier work

Molecule	Differentiation, 1 ng/mL hRANKL (Raw 264.7 cells [1]; 5 days on TCP, 1 ng/mL hRANKL)	Average cell diameter of treated cells (Raw 264.7 cells [1]; 5 days, 100 ng/mL hRANKL, TCP with OP1_Hyp or OP1_Pro, untreated cells 38.1 ± 8.8 µm) [µm]	OSCAR and TRAP levels, 50 ng/mL RANKL only (Raw 264.7 cells [2]; days 1-4, ref Lampiasi et al. [35])	Lowest optimal concentration for osteoclastic cell formation (Raw 264.7 cells [2]; ref Song et al. [29]) [ng/mL]
B1	No differentiation was observed	273.9 ± 73.4		
B2			increased significantly between days 1 and 2 of culture before decreasing sharply on days 3 and 4	30
